Experimental data published in patent US20120121633A1, “HIV CD4 BINDING SITE BASED COVALENT IMMUNOGEN COMPOSITIONS” (priority 2010, published 2012).

Legend:
[1] = biological target: gp120 on intact HIV virions (strain MN) (HIV strain MN) (UniProt P05877); experiment: MAb (7.5 µg/ml) with intact HIV virions, complexes captured on Protein G, p24 ELISA
[2] = biological target: gp120 on intact HIV virions (strain MN) (HIV strain MN) (UniProt P05877); experiment: MAb (0.8 µg/ml) with intact HIV virions, complexes captured on Protein G, p24 ELISA
[3] = biological target: gp120 on intact HIV virions (strain MN) (HIV strain MN) (UniProt P05877); experiment: MAb (45 µg/ml) with intact HIV virions, complexes captured on Protein G, p24 ELISA

Q: Which A490 (MAb binding of HIV in the absence of competitors) [1] does the source give for MAb 2G12 (antibody) here?
A: Its A490 (MAb binding of HIV in the absence of competitors) is 0.246 A490.

Q: How did the A490 (MAb binding of HIV in the absence of competitors) [2] turn out when MAb 447-52D (antibody) was run?
A: The A490 (MAb binding of HIV in the absence of competitors) was 0.291 A490.

Q: MAb clone b12 (antibody) was tested. Which A490 (MAb binding of HIV in the absence of competitors) [3] did it give?
A: The A490 (MAb binding of HIV in the absence of competitors) was 0.176 A490.
